T1: human CD19 on Raji cells (human, UniProt P15391 20-556)
T1 construct: whole, on cells
T1 sequence (looked up): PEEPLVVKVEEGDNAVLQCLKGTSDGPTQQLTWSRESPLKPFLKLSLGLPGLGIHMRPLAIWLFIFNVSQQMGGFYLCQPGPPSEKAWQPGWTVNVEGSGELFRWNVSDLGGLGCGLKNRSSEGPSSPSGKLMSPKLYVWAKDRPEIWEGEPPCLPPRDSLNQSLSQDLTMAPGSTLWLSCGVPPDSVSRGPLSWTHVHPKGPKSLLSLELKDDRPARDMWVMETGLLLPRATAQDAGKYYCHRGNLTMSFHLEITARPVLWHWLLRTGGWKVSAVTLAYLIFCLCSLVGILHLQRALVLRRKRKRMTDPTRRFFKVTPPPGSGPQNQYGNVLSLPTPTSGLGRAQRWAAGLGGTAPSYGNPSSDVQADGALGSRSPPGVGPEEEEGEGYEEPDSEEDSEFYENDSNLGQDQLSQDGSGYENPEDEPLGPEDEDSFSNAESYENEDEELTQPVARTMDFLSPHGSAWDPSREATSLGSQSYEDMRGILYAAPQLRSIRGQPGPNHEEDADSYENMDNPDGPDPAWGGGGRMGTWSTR

T2: Human CD19-his protein (human, UniProt P15391 20-291)
T2 construct: bought protein; also called recombinant human CD19-His; CD19 full-length protein; not shown: His tag
T2 sequence (looked up): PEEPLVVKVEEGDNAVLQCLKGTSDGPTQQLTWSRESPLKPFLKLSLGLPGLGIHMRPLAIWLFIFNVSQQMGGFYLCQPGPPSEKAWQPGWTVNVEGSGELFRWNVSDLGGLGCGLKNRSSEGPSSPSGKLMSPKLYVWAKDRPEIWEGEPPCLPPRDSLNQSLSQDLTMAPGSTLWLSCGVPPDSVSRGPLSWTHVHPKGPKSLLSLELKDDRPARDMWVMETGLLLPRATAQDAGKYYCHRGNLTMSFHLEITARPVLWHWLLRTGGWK

T3: human CD19 on CHO-K1-human CD19 cells (human, UniProt P15391 20-556)
T3 construct: whole, on cells; also called CHO-K1-human CD19-2C8
T3 sequence (looked up): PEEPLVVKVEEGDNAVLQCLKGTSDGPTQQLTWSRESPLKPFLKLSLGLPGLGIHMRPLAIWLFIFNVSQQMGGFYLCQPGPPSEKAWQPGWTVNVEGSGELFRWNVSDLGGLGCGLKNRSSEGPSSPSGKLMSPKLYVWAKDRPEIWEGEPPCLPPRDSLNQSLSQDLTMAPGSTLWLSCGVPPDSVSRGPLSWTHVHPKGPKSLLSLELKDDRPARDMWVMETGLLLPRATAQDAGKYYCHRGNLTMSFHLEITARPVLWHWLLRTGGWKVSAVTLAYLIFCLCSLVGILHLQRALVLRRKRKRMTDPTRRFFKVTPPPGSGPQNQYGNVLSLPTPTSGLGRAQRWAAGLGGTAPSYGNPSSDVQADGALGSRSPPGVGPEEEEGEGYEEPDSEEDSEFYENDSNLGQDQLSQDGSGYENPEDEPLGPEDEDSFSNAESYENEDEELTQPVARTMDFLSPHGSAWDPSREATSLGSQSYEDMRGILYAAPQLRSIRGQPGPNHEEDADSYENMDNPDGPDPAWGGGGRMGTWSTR

T4: human CD19 exon1-3-His tag protein (human, UniProt P15391 20-186, limits assumed)
T4 construct: membrane-distal part of the extracellular region, made in HEK293E cells; not shown: His tag
T4 sequence (looked up): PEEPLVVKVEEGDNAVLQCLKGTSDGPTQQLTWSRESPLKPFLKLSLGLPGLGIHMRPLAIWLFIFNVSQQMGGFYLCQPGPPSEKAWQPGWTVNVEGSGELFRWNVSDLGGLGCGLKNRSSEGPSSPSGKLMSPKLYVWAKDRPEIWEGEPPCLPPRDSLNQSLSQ


What was measured:
human CD19 on Raji cells = target: T1, human CD19 on Raji cells; assay: FACS on Raji cells
Procedure: (§1) After the digestion was terminated, the cells were washed 2 times with a PBS buffer; and for suspension cell Raji, the supernatant of the medium was discarded by directly centrifugation, and the cell pellet was washed 2 times with PBS. After counting the cells in the previous step, the cell pellet was resuspended with [PBS+2% (w/w) BSA] blocking solution to 2×10⁶ cells/ml, and added to a 96-well FACS reaction plate at 50 μl/well, and then the sample to be tested was added at 50 μl/well, and incubated on ice for 2 h. The obtained mixture was centrifuged and washed 3 times with a PBS buffer. […] The obtained mixture was centrifuged and washed 5 times with a PBS buffer, and FACS (FACS Canto™, purchased from BD Company) was used for detection and result analysis. Data analysis was performed by software (FlowJo) to obtain the mean fluorescence intensity (MFI) of the cells. And then software (GraphPad Prism8) was used for analysis, data fitting, and EC50 value calculation. […] The same method was used to detect the binding of the chimeric antibodies to endogenous CD19-negative cells, MoLT4 cells (purchased from ATCC, CRL-1582), and CHO-K1 cells.

Human CD19-his protein [1] = target: T2, Human CD19-his protein; assay: ELISA, coated human CD19-His
Procedure: Human CD19-his protein (purchased from ACROBiosystems, catalog number: CD9-H52H2) was diluted with PBS to a final concentration of 4 μg/mL, and then added to a 96-well ELISA plate at 100 μl/well. The plate was sealed with a plastic film and incubated overnight at 4° C., the plate was washed 2 times with PBS the next day, and then a blocking solution [PBS+2% (w/w) BSA] was added for blocking at room temperature for 2 h. The blocking solution was poured off, and 100 nM gradiently diluted CD19 chimeric antibody or control antibody was added at 50 μl/well. After incubation at 37° C. for 2 h, the plate was washed 3 times with PBS. […] TMB substrate was added at 50 μl/well, and incubated at room temperature for 10 min, and then a stop solution (1.0 N HCl) was added at 50 μl/well. The OD450 nm values were read by an ELISA microplate reader (Multimode Plate Reader, EnSight, purchased from Perkin Elmer).

[2] = target: T3, human CD19 on CHO-K1-human CD19 cells; assay: FACS on CHO-K1-human CD19 cells
Procedure: as §1

Human CD19-his protein [3] = target: T2, Human CD19-his protein; assay: ELISA on coated human CD19-His
[4] = target: T4, human CD19 exon1-3-His tag protein; assay: ELISA, coated human CD19 exon 1-3-His
Human CD19-his protein [5] = target: T2, Human CD19-his protein; assay: SPR Biacore, method of example 7.1, human CD19-His
Procedure: A sample buffer and a running buffer were HBS-EP+ (10 mM HEPES, 150 mM NaCl, 3 mM EDTA and 0.05% surfactant P20) (GE Healthcare; BR-1006-69). The flow-through cell was set to 25° C. The sample block was set to 16° C. Both were pretreated with the running buffer. In each cycle, an antibody to be detected was first captured with a Protein A chip, and then a single concentration of CD19 antigen protein was injected. The binding and dissociation processes of the antibody and the antigen protein were recorded, and finally Glycine pH 1.5 (GE Healthcare; BR-1003-54) was used to complete chip regeneration. The binding was measured by injecting different concentrations of recombinant human CD19-His proteins in a solution for 240 s with a flow rate of 30 μl/min. The concentration started from 200 nM (see the detailed results for the actual concentration in the test) and was diluted at 1:1, making a total of 5 concentrations. The dissociation phase was monitored for up to 600 s and was triggered by switching from sample solution to running buffer. The surface was regenerated by washing with a 10 mM glycine solution (pH 1.5) for 30 s at a flow rate of 30 μl/min. Bulk refractive index difference was corrected by subtracting the response obtained from the goat anti-human Fc surface. Blank injection was also subtracted (=double reference). For calculation of apparent KD and other kinetic parameters, Langmuir 1:1 model was used.
SPR (biacore) detection and data analysis were performed according to the method in example 7.1.

EC50 (human CD19 on Raji cells) [nM] | Maximum mean fluorescence intensity (human CD19 on Raji cells) [MFI] | OD450 at 0.0001 nM (Human CD19-his protein [1]) [OD450] | OD450 at 0.001 nM (Human CD19-his protein [1]) [OD450] | OD450 at 0.01 nM (Human CD19-his protein [1]) [OD450] | OD450 at 0.10 nM (Human CD19-his protein [1]) [OD450] | OD450 at 1.00 nM (Human CD19-his protein [1]) [OD450] | OD450 at 10 nM (Human CD19-his protein [1]) [OD450] | OD450 at 100 nM (Human CD19-his protein [1]) [OD450] | EC50 [2] [nM] | Maximum mean fluorescence intensity [2] [MFI] | EC50 (read off the curve) (Human CD19-his protein [3]) [nM] | OD450 at 0.0001 nM [4] [OD450] | OD450 at 0.001 nM [4] [OD450] | OD450 at 0.01 nM [4] [OD450] | OD450 at 0.10 nM [4] [OD450] | OD450 at 1.00 nM [4] [OD450] | OD450 at 10 nM [4] [OD450] | OD450 at 100 nM [4] [OD450] | Kd (Human CD19-his protein [5]) [nM] | Binder | also measured
0.38 | 29100 | 0.1 | 0.13 | 0.38 | 1.52 | 2.42 | 2.45 | 2.57 | 1.08 | 53200 | ~0.05 | 0.05 | 0.05 | 0.05 | 0.05 | 0.05 | 0.05 | 0.09 | 1.43 | F3.121.4-L2H1 (antibody, mouse IgG1, kappa, V domains shown, humanized antibody of F3.121.4, VL2+VH1, murine IgG1 constant regions) VH: EVQLVQSGAEVKKPGASVKVSCKASGYTFTNYWMHWVRQAPGQRLEWMGEIDPSDNYANYNQEFQGRVTITVDKSASTAYMELSSLRSEDTAVYYCARHDGYFGALDYWGQGTTVTVSS VL: EIVLTQSPDFQSVTPKEKVTITCSASSSISSNYLHWYQQKPDQSPKLLIKRTSNLASGVPSRFSGSGSGTDFTLTINSLEAEDAATYYCQQASSIPRMFTFGQGTKLEIKR | koff (Human CD19-his protein [5]): 0.000186 s⁻¹; kon (Human CD19-his protein [5]): 130000 M⁻¹ s⁻¹
0.38 | 32000 | 0.1 | 0.14 | 0.39 | 1.62 | 2.42 | 2.37 | 2.17 | 1.13 | 53500 | ~0.05 | 0.05 | 0.05 | 0.05 | 0.05 | 0.05 | 0.05 | 0.09 | 0.244 | F3.121.4-L3H1 (antibody, mouse IgG1, kappa, V domains shown, humanized antibody of F3.121.4, VL3+VH1, murine IgG1 constant regions) VH: EVQLVQSGAEVKKPGASVKVSCKASGYTFTNYWMHWVRQAPGQRLEWMGEIDPSDNYANYNQEFQGRVTITVDKSASTAYMELSSLRSEDTAVYYCARHDGYFGALDYWGQGTTVTVSS VL: EIVLTQSPDFQSVTPKEKVTITCSASSSISSNYLHWYQQKPDQSPKFLIYRTSNLASGVPSRFSGSGSGTDFTLTINSLEAEDAATYYCQQASSIPRMFTFGQGTKLEIKR | koff (Human CD19-his protein [5]): 3.18e-05 s⁻¹; kon (Human CD19-his protein [5]): 130000 M⁻¹ s⁻¹

Source: patent US20250042994A1 (HAINAN SIMCERE ZAIMING PHARMACEUTICAL, published 2025)
